For 167 variants, abundance fitness results are on record in the Human Domainome abundance scans (Beltran et al. 2025).

± gives the uncertainty stated by the source.

B1: Nucleolar transcription factor 1, residues 408 to 469; numbered along this chain, P17480 (parent)
chain: KRPVSAMFIFSEEKRRQLQEERPELSESELTRLLARMWNDLSEKKKAKYKAREAALKAQSER

Variants of B1 are the subject of the data set. Put plainly: abundance fitness (aPCA) (normalised: wild type 0, dead -1); higher = more abundant; growth selection in yeast, the domain comes from the species named. The following applies: Homo sapiens.
For the variant R22I, the abundance fitness was -0.286 ± 0.083. On to R22Q, for which the abundance fitness is -0.058 ± 0.082. Regarding A6W, the abundance fitness was -0.453 ± 0.076.

For the variant A6Y, the abundance fitness is -0.155 ± 0.2.

Turning to A6C, the abundance fitness was -0.225 ± 0.11.

K44C: the abundance fitness is -0.126 ± 0.083.

As to K44I, the abundance fitness is -0.159 ± 0.081.

As for K44E, the abundance fitness is -0.021 ± 0.064.

Turning to K44M, the abundance fitness is -0.096 ± 0.056. L33K: the abundance fitness was -0.154 ± 0.085.

As to L33D, the abundance fitness was -0.149 ± 0.069. Regarding L33I, the abundance fitness was 0.016 ± 0.088. In the case of L33R it was -0.159 ± 0.055; in that of L33C, -0.1 ± 0.1; in that of L33V, -0.067 ± 0.046. Regarding P23T, the abundance fitness was -0.218 ± 0.068. With P23M, the abundance fitness was -0.291 ± 0.071. Turning to P23D, the abundance fitness was -0.431 ± 0.29.

Consider P23Q, for which the abundance fitness is -0.275 ± 0.078. Regarding P23S, the abundance fitness is -0.21 ± 0.06. On to L56F, for which the abundance fitness is -0.076 ± 0.081. As for L56G, the abundance fitness was -0.072 ± 0.042. Turning to L56M, the abundance fitness is -0.145 ± 0.086. Next, L56S: 0.013 ± 0.083.

With L56A, the abundance fitness is -0.023 ± 0.055. For L56C, the abundance fitness is -0.164 ± 0.12. Take L56T: the abundance fitness stood at 0.01 ± 0.089. Take R2L: the abundance fitness was -0.215 ± 0.059. Next, R2G: -0.204 ± 0.062; R2E: -0.132 ± 0.12; R2V: -0.049 ± 0.056.

As for R2H, the abundance fitness is -0.025 ± 0.096.

Take R2C: the abundance fitness was -0.178 ± 0.095. In the case of Q17M, the abundance fitness was -0.028 ± 0.057.

Take Q17R: the abundance fitness is -0.114 ± 0.051. As for Q17K, the abundance fitness is -0.094 ± 0.068. Turning to Q17D, the abundance fitness was -0.112 ± 0.11. Take Q17T: the abundance fitness is -0.026 ± 0.092. On to Q17Y, for which the abundance fitness is -0.145 ± 0.12. Consider Q17I, for which the abundance fitness is -0.201 ± 0.14. Turning to Q17E, the abundance fitness was 0.002 ± 0.055. Y49F: the abundance fitness is -0.221 ± 0.078. In the case of Y49L it was -0.577 ± 0.054; in that of Y49G, -0.761 ± 0.038; in that of Y49R, -0.913 ± 0.056.

Regarding Y49V, the abundance fitness was -0.82 ± 0.052. Next, A51D: -0.102 ± 0.06; A51Y: -0.097 ± 0.18; A51V: -0.059 ± 0.051.

Turning to A51K, the abundance fitness is -0.052 ± 0.086. In the case of F8N, the abundance fitness came to 0.024 ± 0.09.

Regarding F8Q, the abundance fitness was -0.236 ± 0.11. F8C: the abundance fitness is -0.069 ± 0.11.

Turning to F8E, the abundance fitness turned out to be 0.02 ± 0.07. Consider F8A, for which the abundance fitness was -0.092 ± 0.12. In the case of R16N it was -0.154 ± 0.16. For R16T, the abundance fitness was -0.078 ± 0.099. For R16I, the abundance fitness was -0.11 ± 0.13. On to R16L, for which the abundance fitness was -0.058 ± 0.056.

Turning to R16A, the abundance fitness was -0.027 ± 0.051. Regarding W38E, the abundance fitness is -0.49 ± 0.057. For the variant W38G, the abundance fitness is -0.667 ± 0.041. As for W38K, the abundance fitness was -0.787 ± 0.12. For W38Y, the abundance fitness is -0.151 ± 0.17. With W38M, the abundance fitness is -1.06 ± 0.08. Next, W38N: -1.07 ± 0.22; Q59K: 0.03 ± 0.071; Q59Y: -0.262 ± 0.1.

Turning to Q59A, the abundance fitness was -0.062 ± 0.052.

Turning to Q59C, the abundance fitness was -0.076 ± 0.098. Regarding Q59W, the abundance fitness is -0.194 ± 0.065. For the variant Q59N, the abundance fitness stood at 0.028 ± 0.15. On to Q59M, for which the abundance fitness was determined as 0.011 ± 0.054. As for Q19C, the abundance fitness was -0.083 ± 0.063.

For the variant Q19F, the abundance fitness is -0.26 ± 0.11.

Consider Q19K, for which the abundance fitness amounted to 0.007 ± 0.068. Regarding E29R, the abundance fitness was -0.496 ± 0.047.

E29T: the abundance fitness was -0.157 ± 0.089. For the variant E29V, the abundance fitness was -0.258 ± 0.045. In the case of E29I, the abundance fitness was -0.327 ± 0.14.

As for E29H, the abundance fitness was -0.223 ± 0.12.

Regarding E29M, the abundance fitness is -0.172 ± 0.064. Consider E29F, for which the abundance fitness was -0.603 ± 0.083. As for A58L, the abundance fitness was -0.025 ± 0.039.

As to A58N, the abundance fitness turned out to be 0.013 ± 0.059.

In the case of A58E, the abundance fitness was -0.069 ± 0.068.

Take A58V: the abundance fitness was -0.017 ± 0.053.

Turning to A58F, the abundance fitness was -0.03 ± 0.065. In the case of A58R it was -0.041 ± 0.045; in that of T31D, 0.005 ± 0.092.

For the variant T31M, the abundance fitness is -0.133 ± 0.058. Turning to T31E, the abundance fitness is -0.051 ± 0.08. With T31G, the abundance fitness was -0.116 ± 0.047. Next, T31I: -0.25 ± 0.092; T31V: -0.131 ± 0.061; A47R: -0.047 ± 0.05. For the variant A47T, the abundance fitness is -0.138 ± 0.11.

On to A47K, for which the abundance fitness is -0.029 ± 0.063. As for A35W, the abundance fitness is -0.273 ± 0.056. Regarding A35E, the abundance fitness was -0.009 ± 0.058.

Consider A35Q, for which the abundance fitness is -0.017 ± 0.095. Regarding A35D, the abundance fitness was -0.035 ± 0.097. With A35N, the abundance fitness is -0.011 ± 0.14. As to K45F, the abundance fitness was -0.105 ± 0.088. Regarding K45R, the abundance fitness is -0.061 ± 0.038.

For the variant K45V, the abundance fitness was -0.097 ± 0.042. K45W: the abundance fitness was -0.232 ± 0.047. K45D: the abundance fitness was -0.052 ± 0.097.

Regarding S5N, the abundance fitness worked out at 0.047 ± 0.12.

Regarding S5P, the abundance fitness was -0.112 ± 0.09. For S5T, the abundance fitness is -0.042 ± 0.057. As to S5L, the abundance fitness was -0.164 ± 0.048. Turning to S5M, the abundance fitness was -0.196 ± 0.084. For the variant R15G, the abundance fitness is -0.153 ± 0.043. With R15S, the abundance fitness is -0.121 ± 0.05. In the case of R15Y, the abundance fitness was -0.243 ± 0.16. Regarding R15C, the abundance fitness is -0.218 ± 0.071.

Take R15M: the abundance fitness is -0.19 ± 0.11. With K1Q, the abundance fitness is -0.196 ± 0.29. With K1R, the abundance fitness was -0.199 ± 0.084. K1F: the abundance fitness is -0.245 ± 0.14. K1H: the abundance fitness was -0.212 ± 0.1. Next, R32Y: -0.157 ± 0.13. In the case of R32D it was -0.058 ± 0.18; in that of R32E, -0.07 ± 0.076.

On to R32G, for which the abundance fitness is -0.085 ± 0.045.

For R32S, the abundance fitness stood at 0.022 ± 0.066.

R32T: the abundance fitness is -0.007 ± 0.092.

Regarding R32F, the abundance fitness is -0.188 ± 0.11. Next, E53S: -0.13 ± 0.056. Turning to E53N, the abundance fitness is -0.37 ± 0.36. In the case of E53R it was -0.389 ± 0.051; in that of E53H, -0.152 ± 0.091. As to E53T, the abundance fitness is -0.211 ± 0.064. In the case of E53Q, the abundance fitness is -0.146 ± 0.074. In the case of A55C it was -0.028 ± 0.08; in that of A55N, -0.141 ± 0.18; in that of A55W, -0.13 ± 0.064. Consider A55V, for which the abundance fitness is -0.025 ± 0.072. Turning to A55Y, the abundance fitness is -0.149 ± 0.14.

Consider A55R, for which the abundance fitness is -0.058 ± 0.061.

As for A55E, the abundance fitness is 0.058 ± 0.073. S26E: the abundance fitness is -0.109 ± 0.062. S26P: the abundance fitness is -0.16 ± 0.09. For the variant S26T, the abundance fitness was -0.144 ± 0.089. On to S26Y, for which the abundance fitness was -0.536 ± 0.2. As for S11A, the abundance fitness was -0.07 ± 0.081. Consider S11F, for which the abundance fitness is -0.029 ± 0.066. In the case of S11Q, the abundance fitness is -0.027 ± 0.073.

Take S11V: the abundance fitness worked out at 0.024 ± 0.049. S11Y: the abundance fitness was found to be 0.011 ± 0.073.

For S11T, the abundance fitness is -0.013 ± 0.05. Take E20K: the abundance fitness is 0.019 ± 0.074. For the variant E20F, the abundance fitness is -0.018 ± 0.098. For the variant E20D, the abundance fitness was 0.031 ± 0.11. Next, E20M: -0.099 ± 0.1. In the case of E20H it was -0.09 ± 0.088; in that of E20R, -0.012 ± 0.042.

Turning to E20Y, the abundance fitness was -0.099 ± 0.13. Next, E20P: -0.295 ± 0.065; E20S: -0.016 ± 0.055. Take E20L: the abundance fitness was -0.1 ± 0.045. P3Q: the abundance fitness is -0.011 ± 0.058.

Take P3Y: the abundance fitness is -0.071 ± 0.082.

With P3F, the abundance fitness was -0.021 ± 0.079. Next, P3E: -0.059 ± 0.099; P3I: 0.036 ± 0.12.
